In publication PMC4148453:
pKd: −log10 of the molar value. “And” between values parts separate entries of the source, which are not always exact repeats. Equal values may be shown once.

What was measured:
Experiment in all cases: EMSA
Details in all cases: 10 mM Tris-Cl pH 8.0, 1 mM DTT, 10% glycerol, 5 mM MgCl2, 10 mM KCl, with 50 mM acetyl phosphate when indicated; EMSA 30 min at 37 C; footprint at room …
[1] = system: 6His-BfmR (Pseudomonas aeruginosa MPAO1)
[2] = system: 6His-BfmR (Pseudomonas aeruginosa MPAO1); remark: listed apart in the source
[3] = system: 6His-BfmR D55A (Pseudomonas aeruginosa MPAO1)

bfmR promoter
pKd [1]: 6.70 and < 6.22
pKd [2]: > 6.40
pKd [3]: < 6.22
